Measured values reported in the supplement of paper PMC11246515.
± gives the standard deviation of the averaged measurements.

Assay: total protein half-life in vivo (active degradation + dilution); higher = more stable protein
[1] = E. coli NCM3722 delta-clpP, growth: N-lim chemostat, doubling time 6 h
[2] = E. coli NCM3722 delta-hslV, growth: N-lim chemostat, doubling time 6 h
[3] = E. coli NCM3722 delta-lon, growth: N-lim chemostat, doubling time 6 h
[4] = E. coli NCM3722 delta-smpB, growth: N-lim chemostat, doubling time 6 h
[5] = wild type E. coli NCM3722, growth: C-lim chemostat, doubling time 3 h
[6] = wild type E. coli NCM3722, growth: C-lim chemostat, doubling time 6 h
[7] = wild type E. coli NCM3722, growth: C-lim chemostat, doubling time 12 h
[8] = wild type E. coli NCM3722, growth: N-lim chemostat, doubling time 6 h
[9] = wild type E. coli NCM3722, growth: P-lim chemostat, doubling time 12 h
[10] = E. coli NCM3722 delta-clpP delta-lon delta-hslV, growth: N-lim chemostat, doubling time 6 h
[11] = wild type E. coli NCM3722, growth: N-lim chemostat, doubling time 12 h
[12] = wild type E. coli NCM3722, growth: P-lim chemostat, doubling time 6 h

Sequence | total protein half-life in vivo [1] [h] | total protein half-life in vivo [2] [h] | total protein half-life in vivo [3] [h] | total protein half-life in vivo [4] [h] | total protein half-life in vivo [5] [h] | total protein half-life in vivo [6] [h] | total protein half-life in vivo [7] [h] | total protein half-life in vivo [8] [h] | total protein half-life in vivo [9] [h] | total protein half-life in vivo [10] [h] | total protein half-life in vivo [11] [h] | total protein half-life in vivo [12] [h]
MSNILIINGAKKFAHSNGQLNDTLTEVADGTLRDLGHDVRIVRADSDYDVKAEVQNFLWADVVIWQMPGWWMGAPWTVKKYIDDVFTEGHGTLYASDGRTRKDPSKKYGSGGLVQGKKYMLSLTWNAPMEAFTEKDQFFHGVGVDGVYLPFHKANQFLGMEPLPTFIANDVIKMPDVPRYTEEYRKHLVEIFG [P0AEY5] | 1.93 ± 0.14 | 1.94 ± 0.091 | 2.18 ± 0.044 | 2.27 ± 0.32 | 3.31 ± 0.43 | 4.76 ± 0.2 | 6.6 ± 0.75 | 2.12 ± 0.18 | 8.32 ± 0.26 |  |  | 
MSNITIYHNPACGTSRNTLEMIRNSGTEPTIIHYLETPPTRDELVKLIADMGISVRALLRKNVEPYEELGLAEDKFTDDRLIDFMLQHPILINRPIVVTPLGTRLCRPSEVVLEILPDAQKGAFSKEDGEKVVDEAGKRLK [P0AB96] | 5.24 |  |  | 3.72 |  | 6.14 ± 0.37 | 8.79 ± 1.4 | 3.41 ± 1.2 | 9.63 ± 0.02 | 6.69 ± 0.8 | 6.1 | 5.09
MSNIWSKEETLWSFALYGTAVGAGTLFLPIQLGSAGAVVLFITALVAWPLTYWPHKALCQFILSSKTSAGEGITGAVTHYYGKKIGNLITTLYFIAFFVVVLIYAVAITNSLTEQLAKHMVIDLRIRMLVSLGVVLILNLIFLMGRHATIRVMGFLVFPLIAYFLFLSIYLVGSWQPDLLTTQVEFNQNTLHQIWISIPVMVFAFSHTPIISTFAIDRREKYGEHAMDKCKKIMKVAYLIICISVLFFVFSCLLSIPPSYIEAAKEEGVTILSALSMLPNAPAWLSISGIIVAVVAMSKSFLGTYFGVIEGATEVVKTTLQQVGVKKSRAFNRALSIMLVSLITFIVCCINPNAISMIYAISGPLIAMILFIMPTLSTYLIPALKPWRSIGNLITLIVGILCVSVMFFS |  |  |  | 5.13 |  |  |  |  |  |  |  | 
MSNKMTGLVKWFNADKGFGFISPVDGSKDVFVHFSAIQNDNYRTLFEGQKVTFSIESGAKGPAAANVIITD | 0.486 ± 0.036 | 0.454 | 0.617 ± 0.26 |  | 2.03 |  | 0.407 | 0.537 | 1.16 | 0.427 ± 0.069 | 0.434 | 
MSNLAAMLRLPANLKSTQWQILAGPILILLILSMMVLPLPAFILDLLFTFNIALSIMVLLVAMFTQRTLEFAAFPTILLFTTLLRLALNVASTRIILMEGHTGAAAAGKVVEAFGHFLVGGNFAIGIVVFVILVIINFMVITKGAGRIAEVGARFVLDGMPGKQMAIDADLNAGLIGEDEAKKRRSEVTQEADFYGSMDGASKFVRGDAIAGILIMVINIVGGLLVGVLQHGMSMGHAAESYTLLTIGDGLVAQIPALVISTAAGVIVTRVSTDQDVGEQMVNQLFSNPSVMLLSAAVLGLLGLVPGMPNLVFLLFTAGLLGLAWWIRGREQKAPAEPKPVKMAENNTVVEATWNDVQLEDSLGMEVGYRLIPMVDFQQDGELLGRIRSIRKKFAQEMGFLPPVVHIRDNMDLQPARYRILMKGVEIGSGDAYPGRWLAINPGTAAGTLPGEATVDPAFGLNAIWIESALKEQAQIQGYTVVEASTVVATHLNHLISQHAAELFGRQEAQQLLDRVAQEMPKLTEDLVPGVVTLTTLHKVLQNLLDEKVPIRDMRTILETLAEHAPIQSDPHELTAVVRVALGRAITQQWFPGKDEVHVIGLDTPLERLLLQALQGGGGLEPGLADRLLAQTQEALSRQEMLGAPPVLLVNHALRPLLSRFLRRSLPQLVVLSNLELSDNRHIRMTATIGGK |  |  |  |  | 2.13 ± 0.33 | 3.87 | 8.63 |  | 14.5 |  |  | 
MSNLSPDFVLPENFCANPQEAWTIPARFYTDQNAFEHEKENVFAKSWICVAHSSELANANDYVTREIIGESIVLVRGRDKVLRAFYNVCPHRGHQLLSGEGKAKNVITCPYHAWAFKLDGNLAHARNCENVANFDSDKAQLVPVRLEEYAGFVFINMDPNATSVEDQLPGLGAKVLEACPEVHDLKLAARFTTRTPANWKNIVDNYLECYHCGPAHPGFSDSVQVDRYWHTMHGNWTLQYGFAKPSEQSFKFEEGTDAAFHGFWLWPCTMLNVTPIKGMMTVIYEFPVDSETTLQNYDIYFTNEELTDEQKSLIEWYRDVFRPEDLRLVESVQKGLKSRGYRGQGRIMADSSGSGISEHGIAHFHNLLAQVFKD [P0ABR7] |  |  |  |  | 0.182 |  |  |  |  |  |  | 
MSNLTGTDKSVILLMTIGEDRAAEVFKHLSQREVQTLSAAMANVTQISNKQLTDVLAEFEQEAEQFAALNINANDYLRSVLVKALGEERAASLLEDILETRDTASGIETLNFMEPQSAADLIRDEHPQIIATILVHLKRAQAADILALFDERLRHDVMLRIATFGGVQPAALAELTEVLNGLLDGQNLKRSKMGGVRTAAEIINLMKTQQEEAVITAVREFDGELAQKIIDEMFLFENLVDVDDRSIQRLLQEVDSESLLIALKGAEQPLREKFLRNMSQRAADILRDDLANRGPVRLSQVENEQKAILLIVRRLAETGEMVIGSGEDTYV [P0ABZ1] | 5.19 |  |  |  | 2.31 ± 0.33 | 3.78 ± 0.1 | 5.85 ± 0.23 |  |  | 4.83 |  | 
MSNLTYLQGYPEQLLSQVRTLINEQRLGDVLAKRYPGTHDYATDKALWQYTQDLKNQFLRNAPPINKVMYDNKIHVLKNALGLHTAVSRVQGGKLKAKVEIRVATVFRNAPEPFLRMIVVHELAHLKEKEHNKAFYQLCCHMEPQYHQLEFDTRLWLTQLSLGQNKI | 1.98 ± 0.15 | 1.16 |  | 1.71 | 3.09 | 1.64 ± 0.58 | 5.13 | 1.78 | 2.74 ± 0.62 | 5.45 ± 0.29 | 1.54 ± 0.21 | 1.84 ± 0.49
MSNNGSSPLVLWYNQLGMNDVDRVGGKNASLGEMITNLSGMGVSVPNGFATTADAFNQFLDQSGVNQRIYELLDKTDIDDVTQLAKAGAQIRQWIIDTPFQPELENAIREAYAQLSADDENASFAVRSSATAEDMPDASFAGQQETFLNVQGFDAVLVAVKHVFASLFNDRAISYRVHQGYDHRGVALSAGVQRMVRSDLASSGVMFSIDTESGFDQVVFITSAWGLGEMVVQGAVNPDEFYVHKPTLAANRPAIVRRTMGSKKIRMVYAPTQEHGKQVKIEDVPQEQRDIFSLTNEEVQELAKQAVQIEKHYGRPMDIEWAKDGHTGKLFIVQARPETVRSRGQVMERYTLHSQGKIIAEGRAIGHRIGAGPVKVIHDISEMNRIEPGDVLVTDMTDPDWEPIMKKASAIVTNRGGRTCHAAIIARELGIPAVVGCGDATERMKDGENVTVSCAEGDTGYVYAELLEFSVKSSSVETMPDLPLKVMMNVGNPDRAFDFACLPNEGVGLARLEFIINRMIGVHPRALLEFDDQEPQLQNEIREMMKGFDSPREFYVGRLTEGIATLGAAFYPKRVIVRLSDFKSNEYANLVGGERYEPDEENPMLGFRGAGRYVSDSFRDCFALECEAVKRVRNDMGLTNVEIMIPFVRTVDQAKAVVEELARQGLKRGENGLKIIMMCEIPSNALLAEQFLEYFDGFSIGSNDMTQLALGLDRDSGVVSELFDERNDAVKALLSMAIRAAKKQGKYVGICGQGPSDHEDFAAWLMEEGIDSLSLNPDTVVQTWLSLAELKK | 4.47 ± 0.29 | 4.6 ± 0.19 | 4.853 ± 0.045 | 4.21 ± 0.38 | 3.08 ± 0.22 | 5.77 ± 0.31 | 10.1 ± 1 | 4.5 ± 0.17 | 11.7 ± 0.34 | 4.83 ± 0.48 | 7.03 ± 0.19 | 5.9 ± 0.38
MSNPILSWRRVRALCVKETRQIVRDPSSWLIAVVIPLLLLFIFGYGINLDSSKLRVGILLEQRSEAALDFTHTMTGSPYIDATISDNRQELIAKMQAGKIRGLVVIPVDFAEQMERANATAPIQVITDGSEPNTANFVQGYVEGIWQIWQMQRAEDNGQTFEPLIDVQTRYWFNPAAISQHFIIPGAVTIIMTVIGAILTSLVVAREWERGTMEALLSTEITRTELLLCKLIPYYFLGMLAMLLCMLVSVFILGVPYRGSLLILFFISSLFLLSTLGMGLLISTITRNQFNAAQVALNAAFLPSIMLSGFIFQIDSMPAVIRAVTYIIPARYFVSTLQSLFLAGNIPVVLVVNVLFLIASAVMFIGLTWLKTKRRLD [P0AFQ2] | 5.62 | 6.1 | 5.56 | 6.04 ± 0.15 |  | 5.36 | 12.8 | 6.36 ± 0.5 | 12.6 ± 0.43 | 6.67 ± 0.81 | 12.5 ± 3.1 | 
MSNWPYPRIVAHRGGGKLAPENTLASIDVGAKYGHKMIEFDAKLSKDGEIFLLHDDNLERTSNGWGVAGELNWQDLLRVDAGSWYSKMFKGEPLPLLSQVAERCREHGMMANIEIKPTTGTGPLTGKMVALAARELWAGMTPPLLSSFEIDALEAAQQAAPELPRGLLLDEWRDDWRELTARLGCVSIHLNHKLLNKARVMQLKDAGLRILVYTVNKPQRAAELLRWGVDCICTDAIDVIGPNFTAQ | 3.75 ± 0.46 | 3.65 ± 0.043 | 4.1 ± 0.021 | 3.72 ± 0.12 | 3.33 ± 0.72 | 5.491 ± 0.049 | 9.38 ± 0.43 | 3.87 ± 0.31 | 9.88 ± 0.3 | 4.77 ± 0.94 | 6.08 ± 0.18 | 5.07 ± 0.11
MSQDNNFSQGPVPQSARKGVLALTFVMLGLTFFSASMWTGGTLGTGLSYHDFFLAVLIGNLLLGIYTSFLGYIGAKTGLTTHLLARFSFGVKGSWLPSLLLGGTQVGWFGVGVAMFAIPVGKATGLDINLLIAVSGLLMTVTVFFGISALTVLSVIAVPAIACLGGYSVWLAVNGMGGLDALKAVVPAQPLDFNVALALVVGSFISAGTLTADFVRFGRNAKLAVLVAMVAFFLGNSLMFIFGAAGAAALGMADISDVMIAQGLLLPAIVVLGLNIWTTNDNALYASGLGFANITGMSSKTLSVINGIIGTVCALWLYNNFVGWLTFLSAAIPPVGGVIIADYLMNRRRYEHFATTRMMSVNWVAILAVALGIAAGHWLPGIVPVNAVLGGALSYLILNPILNRKTTAAMTHVEANSVE [P0AA82] | 0.878 ± 0.056 |  |  |  | 2.01 |  |  |  |  |  |  | 
